Experimental data reported in patent US20200157236A1 (CELLDEX THERAPEUTICS, published 2020).
Changes are numbered by the printed parent chain.

B1: Ab373 (antibody, V domains shown)
VH: EVQLVQSGAEVKKPGSSVKVSCKASGYTFSSYWMHWVRQAPGQGLEWIGYIKPSSGYTKYNQKFKDKATLTADKSTSTAYMELSSLRSEDTAVYYCARDYYGSSSWFAYWGQGTLVTVSS
VL: DIVMTQSQAFMSVTVGEKVTITCKASQNVGTNVAWYQQKPDQAPKALIYSASYRYSGVPSRFSGSGSGTDFTLTISSLEAEDAATYYCQQYNSYPYMYTFGQGTKLEIK
notes: humanized
B2: Ab420 (antibody, V domains shown)
VH: B1 VH with V20L, S30T
VL: EIVMTQSQATLSTSPGERATLSCKASQNVGTNVAWYQQKPGQAPRALIYSASYRYSGVPARFSGSGSGTDFTLTISSVEPEDFAVYYCQQYNSYPYMYTFGQGTKLEIK
notes: humanized
B3: Ab388 (antibody, V domains shown)
VH: B1 VH with A9P, S16T, V20L, S30T, P41R, G44R, K67R
VL: B2 VL with Q8P
notes: humanized
B4: Ab377 (antibody, V domains shown)
VH: B1 VH with S16T, V20L, S30T, Y32S, W33A, H35Q, R38K
VL: B1 VL with D1E, Q8P, A43S
notes: humanized
B5: Ab387 (antibody, V domains shown)
VH: B1 VH with E1Q, K12A, S16T, V20L, S30T, R38K, A68V
VL: B2 VL with Q8P
notes: humanized
B6: Ab390 (antibody, V domains shown)
VH: B1 VH with S16T, V20L, S30T, P41R, G44R, N61A, K65Q, D66E, K67R, A68V
VL: B2 VL with Q8P
notes: humanized
B7: Ab398 (antibody, V domains shown)
VH: B1 VH with V20L, R38K, N61A, K65Q, D66G, K67R, A68V
VL: B2 VL with Q8P
notes: humanized
B8: Ab412 (antibody, V domains shown)
VH: B1 VH with A9P, S16T, V20L, S30T, P41R, G44R, K67R
VL: B2 VL
notes: humanized
B9: Ab409 (antibody, V domains shown)
VH: B1 VH
VL: B2 VL with L11M, P15V, A43S, R45K
notes: humanized
B10: Ab411 (antibody, V domains shown)
VH: B1 VH with E1Q, K12A, S16T, V20L, S30T, R38K, A68V
VL: B2 VL
notes: humanized
B11: Ab415 (antibody, V domains shown)
VH: B1 VH with E1Q, K12A, S16A, V20L, S30T, R38K, S84R, E89D
VL: B2 VL
notes: humanized
B12: Ab382 (antibody, V domains shown)
VH: EVQLVQSGAEVKKPGASVKLSCKASGYTFTSYWMHWVRQAPGQGLEWIGYIKPSSGYTKYAQKLQGRVTLTADKSTSTAYMELRSLRSDDTAVYYCARDYYGSSSWFAYWGQGTLVTVSS
VL: B1 VL with D1E, Q8P, A43S
notes: humanized
B13: Ab374 (antibody, V domains shown)
VH: B12 VH with A16S, T30S, R38K, L64F, R84S, D89E
VL: B1 VL
notes: humanized
B14: Ab386 (antibody, V domains shown)
VH: B12 VH with A16S, T30S, R38K, L64F, R84S, D89E
VL: B1 VL with D1E, Q8P, A43S
notes: humanized
B15: Ab396 (antibody, V domains shown)
VH: B1 VH with V20L, S30T
VL: B2 VL with Q8P
notes: humanized
B16: Ab410 (antibody, V domains shown)
VH: B12 VH with A16S, T30S, R38K, L64F, R84S, D89E
VL: B2 VL with L11M, P15V, A43S, R45K
notes: humanized
B17: Ab381 (antibody, V domains shown)
VH: B1 VH with K12A, S16A, V20L, S30T, S84R, E89D
VL: B1 VL with D1E, Q8P, A43S
notes: humanized
B18: Ab393 (antibody, V domains shown)
VH: B1 VH with K12A, S16A, V20L, S30T, S84R, E89D
VL: B2 VL with Q8P
notes: humanized
B19: Ab413 (antibody, V domains shown)
VH: B1 VH with S16T, V20L, S30T, Y32S, W33A, H35Q, R38K
VL: B2 VL
notes: humanized
B20: Ab379 (antibody, V domains shown)
VH: B1 VH with E1Q, K12A, S16A, V20L, S30T, R38K, S84R, E89D
VL: B1 VL with D1E, Q8P, A43S
notes: humanized
B21: Ab416 (antibody, V domains shown)
VH: B1 VH with S16A, V20L, S30T, S84R, E89D
VL: B2 VL
notes: humanized
B22: Ab380 (antibody, V domains shown)
VH: B1 VH with S16A, V20L, S30T, S84R, E89D
VL: B1 VL with D1E, Q8P, A43S
notes: humanized
B23: Ab378 (antibody, V domains shown)
VH: B12 VH with A16T, P41R, G44R, L64F, G66E, R84S, D89E
VL: B1 VL with D1E, Q8P, A43S
notes: humanized
B24: Ab401 (antibody, V domains shown)
VH: B1 VH with S16T, V20L, S30T, Y32S, W33A, H35Q, R38K
VL: B2 VL with L11M, P15V, A43S, R45K
notes: humanized
B25: Ab385 (antibody, V domains shown)
VH: B1 VH
VL: B1 VL with D1E, Q8P, A43S
notes: humanized
B26: Ab397 (antibody, V domains shown)
VH: B1 VH
VL: B2 VL with Q8P
notes: humanized
B27: Ab404 (antibody, V domains shown)
VH: B1 VH with S16A, V20L, S30T, S84R, E89D
VL: B2 VL with L11M, P15V, A43S, R45K
notes: humanized
B28: Ab394 (antibody, V domains shown)
VH: B12 VH
VL: B2 VL with Q8P
notes: humanized
B29: Ab391 (antibody, V domains shown)
VH: B1 VH with E1Q, K12A, S16A, V20L, S30T, R38K, S84R, E89D
VL: B2 VL with Q8P
notes: humanized
B30: Ab414 (antibody, V domains shown)
VH: B12 VH with A16T, P41R, G44R, L64F, G66E, R84S, D89E
VL: B2 VL
notes: humanized
B31: Ab389 (antibody, V domains shown)
VH: B1 VH with S16T, V20L, S30T, Y32S, W33A, H35Q, R38K
VL: B2 VL with Q8P
notes: humanized
B32: Ab395 (antibody, V domains shown)
VH: B1 VH with E1Q, K12A, V20L, S30T, R38K
VL: B2 VL with Q8P
notes: humanized
B33: Ab408 (antibody, V domains shown)
VH: B1 VH with V20L, S30T
VL: B2 VL with L11M, P15V, A43S, R45K
notes: humanized
B34: Ab376 (antibody, V domains shown)
VH: B1 VH with A9P, S16T, V20L, S30T, P41R, G44R, K67R
VL: B1 VL with D1E, Q8P, A43S
notes: humanized
B35: Ab417 (antibody, V domains shown)
VH: B1 VH with K12A, S16A, V20L, S30T, S84R, E89D
VL: B2 VL
notes: humanized
B36: Ab407 (antibody, V domains shown)
VH: B1 VH with E1Q, K12A, V20L, S30T, R38K
VL: B2 VL with L11M, P15V, A43S, R45K
notes: humanized
B37: Ab375 (antibody, V domains shown)
VH: B1 VH with E1Q, K12A, S16T, V20L, S30T, R38K, A68V
VL: B1 VL with D1E, Q8P, A43S
notes: humanized
B38: Ab405 (antibody, V domains shown)
VH: B1 VH with K12A, S16A, V20L, S30T, S84R, E89D
VL: B2 VL with L11M, P15V, A43S, R45K
notes: humanized
B39: Ab399 (antibody, V domains shown)
VH: B1 VH with E1Q, K12A, S16T, V20L, S30T, R38K, A68V
VL: B2 VL with L11M, P15V, A43S, R45K
notes: humanized
B40: Ab392 (antibody, V domains shown)
VH: B1 VH with S16A, V20L, S30T, S84R, E89D
VL: B2 VL with Q8P
notes: humanized
B41: Ab383 (antibody, V domains shown)
VH: B1 VH with E1Q, K12A, V20L, S30T, R38K
VL: B1 VL with D1E, Q8P, A43S
notes: humanized

Target: T1, purified ALK protein (BLitz, Table 20) (Homo sapiens (Human), UniProt Q9UM73 19-1038, limits assumed)
T1 construct: also called purified ALK proteins
T1 sequence (Q9UM73 19-1038 limits assumed): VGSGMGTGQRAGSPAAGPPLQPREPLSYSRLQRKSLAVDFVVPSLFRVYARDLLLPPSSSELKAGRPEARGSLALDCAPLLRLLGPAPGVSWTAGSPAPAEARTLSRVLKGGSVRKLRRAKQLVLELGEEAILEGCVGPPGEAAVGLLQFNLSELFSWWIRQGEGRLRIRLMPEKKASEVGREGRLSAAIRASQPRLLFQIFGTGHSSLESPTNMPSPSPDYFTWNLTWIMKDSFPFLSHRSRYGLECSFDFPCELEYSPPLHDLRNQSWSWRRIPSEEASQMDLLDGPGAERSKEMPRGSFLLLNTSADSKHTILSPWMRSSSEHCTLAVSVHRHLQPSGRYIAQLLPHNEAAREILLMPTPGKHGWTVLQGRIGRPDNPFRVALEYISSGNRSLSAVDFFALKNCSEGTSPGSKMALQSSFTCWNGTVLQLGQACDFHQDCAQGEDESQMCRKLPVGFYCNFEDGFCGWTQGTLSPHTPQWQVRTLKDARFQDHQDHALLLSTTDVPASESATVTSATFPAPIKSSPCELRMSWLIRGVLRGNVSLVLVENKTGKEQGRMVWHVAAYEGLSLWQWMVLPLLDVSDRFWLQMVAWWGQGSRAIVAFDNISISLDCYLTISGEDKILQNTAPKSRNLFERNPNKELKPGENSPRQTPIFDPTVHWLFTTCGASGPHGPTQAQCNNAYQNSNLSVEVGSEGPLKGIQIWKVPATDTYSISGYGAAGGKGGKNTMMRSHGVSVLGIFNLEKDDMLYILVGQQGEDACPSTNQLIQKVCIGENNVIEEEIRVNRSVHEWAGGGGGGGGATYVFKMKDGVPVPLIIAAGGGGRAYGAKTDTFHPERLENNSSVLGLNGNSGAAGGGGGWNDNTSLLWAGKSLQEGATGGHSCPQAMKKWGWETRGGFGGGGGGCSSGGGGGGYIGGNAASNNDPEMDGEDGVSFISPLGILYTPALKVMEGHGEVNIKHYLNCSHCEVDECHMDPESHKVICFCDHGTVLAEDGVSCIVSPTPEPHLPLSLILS
Test: BLI (BLitz), mAb on Protein A tip, purified ALK in solution
Description: Kinetic measurements of the monovalent affinity of the 96 humanized ALK antibody variants (Ab351-Ab446) were collected. Affinity ranking was performed using a BLitz® System (ForteBio, Menlo Park, Calif.). Humanized anti-ALK antibodies were immobilized at 0.5 mg/mL using Protein A tips. Once baseline stability was ensured, purified ALK proteins at 70 μg/mL were added. The resulting kinetic data were fit to a single binding site equation, from which the quoted monovalent KD values were derived.

Row | Kd | Binder
1 | 280 nM | B1
2 | 233 nM | B2
3 | 108 nM | B3
4 | 927 nM | B4
5 | 158 nM | B5
6 | 288 nM | B6
7 | 221 nM | B7
8 | 111 nM | B8
9 | 208 nM | B9
10 | 143 nM | B10
11 | 128 nM | B11
12 | 141 nM | B12
13 | 253 nM | B13
14 | 257 nM | B14
15 | 176 nM | B15
16 | 144 nM | B16
17 | 180 nM | B17
18 | 186 nM | B18
19 | 1660 nM | B19
20 | 118 nM | B20
21 | 180 nM | B21

Row | Kd | Binder
22 | 141 nM | B22
23 | 167 nM | B23
24 | 1060 nM | B24
25 | 626 nM | B25
26 | 378 nM | B26
27 | 132 nM | B27
28 | 157 nM | B28
29 | 175 nM | B29
30 | 142 nM | B30
31 | 1550 nM | B31
32 | 132 nM | B32
33 | 144 nM | B33
34 | 103 nM | B34
35 | 170 nM | B35
36 | 109 nM | B36
37 | 140 nM | B37
38 | 195 nM | B38
39 | 107 nM | B39
40 | 179 nM | B40
41 | 132 nM | B41
